Experimental data taken from patent US20140087995A1 (published 2014).
Numbered stars: 1 amine (or outer) side, 2 acyl side, 3 side chain; on linkers, the order of the positions; unused ones are H or OH. Bridge positions count the residues as written; N and C are the ends. Side chains are listed from the residue outwards. Ends that are not written are not given here. * marks the point of attachment. C20 diacid = O=C(O)CCCCCCCCCCCCCCCCCCC(=O)*; γGlu = O=C(O)[C@H](CCC(=O)[*:2])N[*:1]; AEEA = NCCOCCOCC(=O)O

B1: N^ε1-[2-[2-[2-[[(4S)-4-carboxy-4-(19-carboxynonadecanoylamino)butanoyl]amino]ethoxy]ethoxy]acetyl]-[Gly14,Arg17,Pro21,Pro27,Pro31]-h-amylin (peptide)
peptide: K([AEEA-γGlu-C20 diacid])CNTATCATQRLAGFLRHSSPNFGAIPSSTPVGSNTY-NH2
modifications: disulfide 2-7; N-terminus assumed
SMILES: CC[C@H](C)[C@H](NC(=O)[C@H](C)NC(=O)CNC(=O)[C@H](Cc1ccccc1)NC(=O)[C@H](CC(N)=O)NC(=O)[C@@H]1CCCN1C(=O)[C@H](CO)NC(=O)[C@H](CO)NC(=O)[C@H](Cc1c[nH]cn1)NC(=O)[C@H](CCCNC(=N)N)NC(=O)[C@H](CC(C)C)NC(=O)[C@H](Cc1ccccc1)NC(=O)CNC(=O)[C@H](C)NC(=O)[C@H](CC(C)C)NC(=O)[C@H](CCCNC(=N)N)NC(=O)[C@H](CCC(N)=O)NC(=O)[C@@H](NC(=O)[C@H](C)NC(=O)[C@@H]1CSSC[C@H](NC(=O)[C@@H](N)CCCCNC(=O)COCCOCCNC(=O)CC[C@H](NC(=O)CCCCCCCCCCCCCCCCCCC(=O)O)C(=O)O)C(=O)N[C@@H](CC(N)=O)C(=O)N[C@@H]([C@@H](C)O)C(=O)N[C@@H](C)C(=O)N[C@@H]([C@@H](C)O)C(=O)N1)[C@@H](C)O)C(=O)N1CCC[C@H]1C(=O)N[C@@H](CO)C(=O)N[C@@H](CO)C(=O)N[C@H](C(=O)N1CCC[C@H]1C(=O)N[C@H](C(=O)NCC(=O)N[C@@H](CO)C(=O)N[C@@H](CC(N)=O)C(=O)N[C@H](C(=O)N[C@@H](Cc1ccc(O)cc1)C(N)=O)[C@@H](C)O)C(C)C)[C@@H](C)O
notes: also called compound 71
B2: N^ε1-[2-[2-[2-[[(4S)-4-carboxy-4-(19-carboxynonadecanoylamino)butanoyl]amino]ethoxy]ethoxy]acetyl]-[His14,Arg17,Pro21,Pro27,His34]-h-amylin (peptide)
peptide: K([AEEA-γGlu-C20 diacid])CNTATCATQRLAHFLRHSSPNFGAIPSSTNVGHNTY-NH2
modifications: disulfide 2-7; N-terminus assumed
SMILES: CC[C@H](C)[C@H](NC(=O)[C@H](C)NC(=O)CNC(=O)[C@H](Cc1ccccc1)NC(=O)[C@H](CC(N)=O)NC(=O)[C@@H]1CCCN1C(=O)[C@H](CO)NC(=O)[C@H](CO)NC(=O)[C@H](Cc1c[nH]cn1)NC(=O)[C@H](CCCNC(=N)N)NC(=O)[C@H](CC(C)C)NC(=O)[C@H](Cc1ccccc1)NC(=O)[C@H](Cc1c[nH]cn1)NC(=O)[C@H](C)NC(=O)[C@H](CC(C)C)NC(=O)[C@H](CCCNC(=N)N)NC(=O)[C@H](CCC(N)=O)NC(=O)[C@@H](NC(=O)[C@H](C)NC(=O)[C@@H]1CSSC[C@H](NC(=O)[C@@H](N)CCCCNC(=O)COCCOCCNC(=O)CC[C@H](NC(=O)CCCCCCCCCCCCCCCCCCC(=O)O)C(=O)O)C(=O)N[C@@H](CC(N)=O)C(=O)N[C@@H]([C@@H](C)O)C(=O)N[C@@H](C)C(=O)N[C@@H]([C@@H](C)O)C(=O)N1)[C@@H](C)O)C(=O)N1CCC[C@H]1C(=O)N[C@@H](CO)C(=O)N[C@@H](CO)C(=O)N[C@H](C(=O)N[C@@H](CC(N)=O)C(=O)N[C@H](C(=O)NCC(=O)N[C@@H](Cc1c[nH]cn1)C(=O)N[C@@H](CC(N)=O)C(=O)N[C@H](C(=O)N[C@@H](Cc1ccc(O)cc1)C(N)=O)[C@@H](C)O)C(C)C)[C@@H](C)O
notes: also called compound 80
B3: N^ε1-[2-[2-[2-[[(4S)-4-carboxy-4-(19-carboxynonadecanoylamino)butanoyl]amino]ethoxy]ethoxy]acetyl]-[Lys14,Arg17,Pro21,Pro27,Pro31]-h-amylin (peptide)
peptide: K([AEEA-γGlu-C20 diacid])CNTATCATQRLAKFLRHSSPNFGAIPSSTPVGSNTY-NH2
modifications: disulfide 2-7; N-terminus assumed
SMILES: CC[C@H](C)[C@H](NC(=O)[C@H](C)NC(=O)CNC(=O)[C@H](Cc1ccccc1)NC(=O)[C@H](CC(N)=O)NC(=O)[C@@H]1CCCN1C(=O)[C@H](CO)NC(=O)[C@H](CO)NC(=O)[C@H](Cc1c[nH]cn1)NC(=O)[C@H](CCCNC(=N)N)NC(=O)[C@H](CC(C)C)NC(=O)[C@H](Cc1ccccc1)NC(=O)[C@H](CCCCN)NC(=O)[C@H](C)NC(=O)[C@H](CC(C)C)NC(=O)[C@H](CCCNC(=N)N)NC(=O)[C@H](CCC(N)=O)NC(=O)[C@@H](NC(=O)[C@H](C)NC(=O)[C@@H]1CSSC[C@H](NC(=O)[C@@H](N)CCCCNC(=O)COCCOCCNC(=O)CC[C@H](NC(=O)CCCCCCCCCCCCCCCCCCC(=O)O)C(=O)O)C(=O)N[C@@H](CC(N)=O)C(=O)N[C@@H]([C@@H](C)O)C(=O)N[C@@H](C)C(=O)N[C@@H]([C@@H](C)O)C(=O)N1)[C@@H](C)O)C(=O)N1CCC[C@H]1C(=O)N[C@@H](CO)C(=O)N[C@@H](CO)C(=O)N[C@H](C(=O)N1CCC[C@H]1C(=O)N[C@H](C(=O)NCC(=O)N[C@@H](CO)C(=O)N[C@@H](CC(N)=O)C(=O)N[C@H](C(=O)N[C@@H](Cc1ccc(O)cc1)C(N)=O)[C@@H](C)O)C(C)C)[C@@H](C)O
notes: also called compound 74
B4: N^ε1-[2-[2-[2-[[(4S)-4-carboxy-4-(19-carboxynonadecanoylamino)butanoyl]amino]ethoxy]ethoxy]acetyl]-[His14,Arg17,Pro21,Pro27,Pro31]-h-amylin (peptide)
peptide: K([AEEA-γGlu-C20 diacid])CNTATCATQRLAHFLRHSSPNFGAIPSSTPVGSNTY-NH2
modifications: disulfide 2-7; N-terminus assumed
SMILES: CC[C@H](C)[C@H](NC(=O)[C@H](C)NC(=O)CNC(=O)[C@H](Cc1ccccc1)NC(=O)[C@H](CC(N)=O)NC(=O)[C@@H]1CCCN1C(=O)[C@H](CO)NC(=O)[C@H](CO)NC(=O)[C@H](Cc1c[nH]cn1)NC(=O)[C@H](CCCNC(=N)N)NC(=O)[C@H](CC(C)C)NC(=O)[C@H](Cc1ccccc1)NC(=O)[C@H](Cc1c[nH]cn1)NC(=O)[C@H](C)NC(=O)[C@H](CC(C)C)NC(=O)[C@H](CCCNC(=N)N)NC(=O)[C@H](CCC(N)=O)NC(=O)[C@@H](NC(=O)[C@H](C)NC(=O)[C@@H]1CSSC[C@H](NC(=O)[C@@H](N)CCCCNC(=O)COCCOCCNC(=O)CC[C@H](NC(=O)CCCCCCCCCCCCCCCCCCC(=O)O)C(=O)O)C(=O)N[C@@H](CC(N)=O)C(=O)N[C@@H]([C@@H](C)O)C(=O)N[C@@H](C)C(=O)N[C@@H]([C@@H](C)O)C(=O)N1)[C@@H](C)O)C(=O)N1CCC[C@H]1C(=O)N[C@@H](CO)C(=O)N[C@@H](CO)C(=O)N[C@H](C(=O)N1CCC[C@H]1C(=O)N[C@H](C(=O)NCC(=O)N[C@@H](CO)C(=O)N[C@@H](CC(N)=O)C(=O)N[C@H](C(=O)N[C@@H](Cc1ccc(O)cc1)C(N)=O)[C@@H](C)O)C(C)C)[C@@H](C)O
notes: also called compound 61
B5: N^ε1-[2-[2-[2-[[(4S)-4-carboxy-4-(19-carboxynonadecanoylamino)butanoyl]amino]ethoxy]ethoxy]acetyl]-[His14,Arg17,Pro21,Pro27,Pro34]-h-amylin (peptide)
peptide: K([AEEA-γGlu-C20 diacid])CNTATCATQRLAHFLRHSSPNFGAIPSSTNVGPNTY-NH2
modifications: disulfide 2-7; N-terminus assumed
SMILES: CC[C@H](C)[C@H](NC(=O)[C@H](C)NC(=O)CNC(=O)[C@H](Cc1ccccc1)NC(=O)[C@H](CC(N)=O)NC(=O)[C@@H]1CCCN1C(=O)[C@H](CO)NC(=O)[C@H](CO)NC(=O)[C@H](Cc1c[nH]cn1)NC(=O)[C@H](CCCNC(=N)N)NC(=O)[C@H](CC(C)C)NC(=O)[C@H](Cc1ccccc1)NC(=O)[C@H](Cc1c[nH]cn1)NC(=O)[C@H](C)NC(=O)[C@H](CC(C)C)NC(=O)[C@H](CCCNC(=N)N)NC(=O)[C@H](CCC(N)=O)NC(=O)[C@@H](NC(=O)[C@H](C)NC(=O)[C@@H]1CSSC[C@H](NC(=O)[C@@H](N)CCCCNC(=O)COCCOCCNC(=O)CC[C@H](NC(=O)CCCCCCCCCCCCCCCCCCC(=O)O)C(=O)O)C(=O)N[C@@H](CC(N)=O)C(=O)N[C@@H]([C@@H](C)O)C(=O)N[C@@H](C)C(=O)N[C@@H]([C@@H](C)O)C(=O)N1)[C@@H](C)O)C(=O)N1CCC[C@H]1C(=O)N[C@@H](CO)C(=O)N[C@@H](CO)C(=O)N[C@H](C(=O)N[C@@H](CC(N)=O)C(=O)N[C@H](C(=O)NCC(=O)N1CCC[C@H]1C(=O)N[C@@H](CC(N)=O)C(=O)N[C@H](C(=O)N[C@@H](Cc1ccc(O)cc1)C(N)=O)[C@@H](C)O)C(C)C)[C@@H](C)O
notes: also called compound 68
B6: N^ε1-[2-[2-[2-[[(4S)-4-carboxy-4-(19-carboxynonadecanoylamino)butanoyl]amino]ethoxy]ethoxy]acetyl]-[His14,Arg17,Pro21,Pro27,Arg34]-h-amylin (peptide)
peptide: K([AEEA-γGlu-C20 diacid])CNTATCATQRLAHFLRHSSPNFGAIPSSTNVGRNTY-NH2
modifications: disulfide 2-7; N-terminus assumed
SMILES: CC[C@H](C)[C@H](NC(=O)[C@H](C)NC(=O)CNC(=O)[C@H](Cc1ccccc1)NC(=O)[C@H](CC(N)=O)NC(=O)[C@@H]1CCCN1C(=O)[C@H](CO)NC(=O)[C@H](CO)NC(=O)[C@H](Cc1c[nH]cn1)NC(=O)[C@H](CCCNC(=N)N)NC(=O)[C@H](CC(C)C)NC(=O)[C@H](Cc1ccccc1)NC(=O)[C@H](Cc1c[nH]cn1)NC(=O)[C@H](C)NC(=O)[C@H](CC(C)C)NC(=O)[C@H](CCCNC(=N)N)NC(=O)[C@H](CCC(N)=O)NC(=O)[C@@H](NC(=O)[C@H](C)NC(=O)[C@@H]1CSSC[C@H](NC(=O)[C@@H](N)CCCCNC(=O)COCCOCCNC(=O)CC[C@H](NC(=O)CCCCCCCCCCCCCCCCCCC(=O)O)C(=O)O)C(=O)N[C@@H](CC(N)=O)C(=O)N[C@@H]([C@@H](C)O)C(=O)N[C@@H](C)C(=O)N[C@@H]([C@@H](C)O)C(=O)N1)[C@@H](C)O)C(=O)N1CCC[C@H]1C(=O)N[C@@H](CO)C(=O)N[C@@H](CO)C(=O)N[C@H](C(=O)N[C@@H](CC(N)=O)C(=O)N[C@H](C(=O)NCC(=O)N[C@@H](CCCNC(=N)N)C(=O)N[C@@H](CC(N)=O)C(=O)N[C@H](C(=O)N[C@@H](Cc1ccc(O)cc1)C(N)=O)[C@@H](C)O)C(C)C)[C@@H](C)O
notes: also called compound 84

target: T1, human calcitonin receptor (human, UniProt P30988 25-474); assay: cell-based or functional assay
T1 sequence (looked up): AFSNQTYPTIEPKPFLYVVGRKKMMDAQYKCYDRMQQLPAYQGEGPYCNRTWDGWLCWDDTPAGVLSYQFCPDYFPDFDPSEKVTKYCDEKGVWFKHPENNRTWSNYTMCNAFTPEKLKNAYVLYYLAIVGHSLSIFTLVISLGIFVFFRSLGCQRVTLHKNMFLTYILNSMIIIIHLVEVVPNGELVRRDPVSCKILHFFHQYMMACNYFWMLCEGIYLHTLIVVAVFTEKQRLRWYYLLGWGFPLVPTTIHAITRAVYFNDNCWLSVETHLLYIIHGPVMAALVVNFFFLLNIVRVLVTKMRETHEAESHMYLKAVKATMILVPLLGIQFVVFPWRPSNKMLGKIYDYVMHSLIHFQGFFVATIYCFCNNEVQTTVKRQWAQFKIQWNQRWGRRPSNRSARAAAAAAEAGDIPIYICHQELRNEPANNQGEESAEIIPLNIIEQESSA

Binder | hCTR funct. EC50
B1 | 0.527 nM
B2 | 2.14 nM
B3 | 37.5 nM
B4 | 0.554 nM
B5 | 0.932 nM
B6 | 5.49 nM
